Laboratory results taken from patent publication US20090074766A1, “Methods of inhibiting HIV-2 infection” (priority 2007, published 2009).
Several values for one entry are separate records, joined by “and”; a condition that tells them apart may be missing. Equal values may be shown once. Entries after “also recorded” stand apart in the source; their conditions may differ.

Assays:
[1] = system: HIV-1; settings: treatment period of 10-14 days, dose-dependent; cited from earlier work
[2] = biological target: T1, CCR5 (Homo sapiens, UniProt P51681); test: Competition binding: inhibition of 3H-UK-427,857 binding to CEM.NKR-CCR5 cells; settings: read-out: EC50 for inhibition of 3H-UK-427,857 binding; 2 nM 3H-UK-427,857, pre-incubation with unlabeled compound
T1 construct: host or cells: CEM.NKR-CCR5 (transduced human T cell leukemia line)
Text: Cells were washed and then analyzed for radioactivity by scintillation counting.
The cells were washed in PBSA and lysed with 0.5N HCl prior to scintillation counting using a Wallac1410 instrument.

[3] = system: R5 HIV-2 isolates; test: Inhibition of replication in PBMC cultures, RT activity readout: panel of five R5 HIV-2 isolates; format: cell-based
Protocol: (§1) Two well-characterized R5 HIV-1 isolates were included for comparative purposes.
Viruses: All virus isolates were grown and titered exclusively in stimulated PBMC as described previously.
Equal numbers of cells from each donor were then separately stimulated with 5 ug phytohemagglutinin/ml (Sigma, St. Louis, Mo.) or with surface-immobilized anti-CD3 antibody OKT3 in RPMI 1640 medium containing 10% fetal calf serum, 100 Units of interleukin-2/ml (NIH AIDS Research and Reference Reagent Program), glutamine, and antibiotics (PBMC culture medium) as previously described. After 72 hours, equal numbers of PBMC stimulated by one of these two methods from each donor were combined for use in infection assays as follows. […] The virus inoculum was adjusted to 400 to 2,000 times the TCID50 per ml in PBMC culture medium, and a 50-ul aliquot was added to each culture. The inhibitory doses refer to the concentrations of the agents present at this point in the culture, when virus, cells, and inhibitors were all present at their final concentrations.
The inhibition data were analyzed using GraphPad Prism software (GraphPad Software, San Diego, Calif.). A 4-parameter logistic fit was used calculate the concentration of inhibitor that afforded a 50% and a 90% reduction in RT activity. […] The % inhibitions where best-fit curve reached a top plateau, also as calculated by GraphPad Prism software, are reported as well as maximum percent inhibition (MPI). […] Inhibition curves with a poor sigmoid fit (R^2<0.7) were excluded from data analysis.
The panel was tested five times on a different PBMC donor pool each time, using the RT ELISA as a readout.

[4] = system: HIV-1 JR-FL; test: Previous studies (300-TD-028): HIV-1 replication in PBMC quantitated by p24 ELISA, JR-FL; format: cell-based
Protocol: The EC values were measured by p24 ELISA in previous studies, according to published methods. Because the p24 ELISA cannot efficiently quantitate p24 from the HIV-2 isolates used in this study, a commercial ELISA that measures reverse transcriptase was chosen as a readout for both the HIV-2 and HIV-1 infection assays in the present study.

[5] = system: R5X4 HIV-2 isolates; test: Inhibition of replication in PBMC cultures, RT activity readout: two R5X4 HIV-2 isolates; format: cell-based; settings: result in words
Protocol: as §1
Viruses: All virus isolates were grown and titered exclusively in stimulated PBMC as described previously. […] The HIV-2 isolates used in this study have been previously described (Owen, S. M., Ellenberger, D., Rayfield, M., Wiktor, S., Michel, P., Grieco, M. H., Gao, F., Hahn, B. H., and Lai, R. B. 1998. Genetically Divergent Strains of Human Immunodeficiency Virus Type 2 Use Multiple Coreceptors for Entry. J Virol 72:5425-5432) and were obtained from the NIH AIDS Research and Reference Reagent Program.
Inhibition of HIV-1 and HIV-2 replication in PBMC cultures: PBMC were isolated from 34 healthy blood donors with Ficoll-Hypaque (all media from Cellgro, Herndon, Va.) and depleted of CD8+ cells using RosetteSep CD8 depletion cocktail (StemCell Technologies) according to the manufacturer's instructions. […] Reverse Transcriptase (RT) activity was measured on Day 7 post infection (pi) for HIV-1 and Day 10 pi for HIV-2 by the Reverse Transcriptase Assay, Colorimetric kit, #11 468 120 910, Roche (Switzerland) according to the manufacturer's instructions with the following exception: neither ultracentrifugation nor PEG precipitation of the culture supernatants was performed before viral lysis.
The inhibition data were analyzed using GraphPad Prism software (GraphPad Software, San Diego, Calif.). […]

[6] = system: HIV-1; settings: Table 2 comparison; cited from earlier work
[7] = Phase 1b clinical trial: pharmacokinetics (serum PRO 140 by ELISA); settings: non-compartmental analysis, HIV-infected subjects
[8] = system: CCR5 lymphocytes; test: Phase 1b clinical trial: coating of CCR5 lymphocytes (flow cytometry ex vivo)
[9] = system: HIV-1JR-CSF; test: hu-PBL SCID mouse model infected with HIV-1JR-CSF (FIG. 5); format: in vivo; settings: multiple doses after steady state viral levels, FIG. 5 legend
Protocol: SCID mice were reconstituted with normal human peripheral blood mononuclear cells and infected 2 weeks later with HIV-1JR-CSF. Multiple doses of PRO 140 were administered following attainment of steady state viral levels. Plasma viral loads pre- and post-injection are indicated.

[10] = human, in vivo
Protocol: Individuals were treated in sequential, dose-rising cohorts of 5 subjects (4 active and 1 placebo) each and evaluated for up to 120 days post-treatment. […] Safety assessments consisted of monitoring the following: vital signs (blood pressure, pulse, temperature, etc; hematology (hemoglobin, hematocrit, leukocytes, platelets, etc.); serum chemistries (AST/ALT, alkaline phosphatase, BUN, creatinine, etc.); urinalysis (pH, specific gravity, protein, glucose, leukocytes, etc.); and ECGs (12-lead).

[11] = Median line of the five R5 HIV-2 isolates
[12] = individual assays (Source), previous study, p24 ELISA
[13] = previous studies n = 33, median

T1 sequence (P51681 whole entry): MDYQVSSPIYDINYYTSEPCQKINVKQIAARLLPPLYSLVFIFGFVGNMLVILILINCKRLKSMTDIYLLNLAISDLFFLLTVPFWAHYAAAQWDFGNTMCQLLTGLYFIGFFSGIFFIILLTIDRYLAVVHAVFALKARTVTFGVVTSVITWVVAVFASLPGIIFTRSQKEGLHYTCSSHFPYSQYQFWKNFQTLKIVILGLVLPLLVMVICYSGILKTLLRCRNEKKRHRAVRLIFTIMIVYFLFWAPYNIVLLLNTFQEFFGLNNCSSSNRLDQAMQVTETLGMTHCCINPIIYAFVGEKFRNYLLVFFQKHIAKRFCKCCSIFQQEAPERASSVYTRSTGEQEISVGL

Molecule	mean reductions in HIV-1 RNA levels [1] [log10]	EC50 [2] [nM]	EC50, median over the R5 HIV-2 isolates [3, 11] [µg/mL]	EC90, median over the R5 HIV-2 isolates [3, 11] [µg/mL]	median MPI against the R5 HIV-2 isolates ([3]; maximum percent inhibition) [%]	MPI, Median Values, all R5 HIV-2 Viruses ([3]; median, all R5 HIV-2 viruses) [%]	EC50 [4, 12]	EC90 [4, 12]	EC50 (mean) ([4]; previous studies n = 33, mean) [µg/mL]	EC90 (mean) ([4]; previous studies n = 33, mean) [µg/mL]	EC50 (median) [4, 13] [µg/mL]	EC90 (median) [4, 13] [µg/mL]	effect on replication of R5X4 HIV-2 isolates [5]	Development of Resistance In Vitro [6]	Terminal half life [7]	depletion of CCR5+ lymphocytes [8]	control of viral replication in HIV-1-infected mice [9]	dose-limiting toxicity [10]
COC[C@@H](c1ccc(C(F)(F)F)cc1)N1CCN(C2(C)CCN(C(=O)c3c(C)ncnc3C)CC2)C[C@@H]1C [SCH-D, 1-[(4,6-dimethyl-5-pyrimidinyl)carbonyl]-4-[4-[2-methoxy-1(R)-4-(trifluoromethyl)phenyl]ethyl-3(S)-methyl-1-piperazinyl]-4-methylpiperidine]	~1	–	–	–	–	–	–	–	–	–	–	–	–	–	–	–	–	–
PRO 140: humanized IgG4,κ anti-CCR5 monoclonal antibody, humanized version of murine mAb PA14 (antibody, chains of the INN, looked up, V domains shown) VH: EVQLVESGGGLVKPGGSLRLSCAASGYTFSNYWIGWVRQAPGKGLEWIGDIYPGGNYIRNNEKFKDKTTLSADTSKNTAYLQMNSLKTEDTAVYYCGSSFGSNYVFAWFTYWGQGTLVTVSS VL: DIVMTQSPLSLPVTPGEPASISCRSSQRLLSSYGHTYLHWYLQKPGQSPQLLIYEVSNRFSGVPDRFSGSGSGTDFTLKISRVEAEDVGVYYCSQSTHVPLTFGQGTKVEIK	–	14	0.12	21	96	96	0.37 µg/mL and 0.003 µg/mL and 0.03 µg/mL and 0.28 µg/mL and 0.13 µg/mL and 0.05 µg/mL and 0.97 µg/mL and 0.39 µg/mL and <0.001 µg/mL and 0.001 µg/mL and 1.8 µg/mL and 0.24 µg/mL and 0.14 µg/mL and 0.58 µg/mL and 0.45 µg/mL and 0.06 µg/mL and 0.72 µg/mL and 1.9 µg/mL and 0.61 µg/mL and 0.69 µg/mL and 0.12 µg/mL and 0.02 µg/mL and 2.7 µg/mL and 0.48 µg/mL and 0.04 µg/mL and <0.1 µg/mL and 0.43 µg/mL	3.4 µg/mL and 0.01 µg/mL and 18 µg/mL and 5.4 µg/mL and 2.2 µg/mL and 3.1 µg/mL and 12 µg/mL and 0.02 µg/mL and <0.001 µg/mL and 0.13 µg/mL and 0.52 µg/mL and >50 µg/mL and 0.93 µg/mL and 5.8 µg/mL and 8.1 µg/mL and 8.2 µg/mL and 2.1 µg/mL and 10 µg/mL and 11 µg/mL and 0.22 µg/mL and 3.7 µg/mL and 22 µg/mL and 1.2 µg/mL and 34 µg/mL	<0.41	>10	0.13	3.4	did not measurably inhibit replication; also recorded: Neither PRO 140 nor PA14 had any measurable effect on replication	None at 40 weeks	approximately 4 d	No depletion of CCR5+ lymphocytes	provides prolonged control of viral replication	no dose-limiting toxicity
